In paper PMC6688529, “Dissecting the cytochrome c2–reaction centre interaction in bacterial photosynthesis using single molecule force spectroscopy” (Biochemical Journal, 2019):

Legend:
[1] = biological target: T1, monomeric RC–His12–LH1–PufX core complex (reaction centre light-harvesting 1-PufX) (Rba. sphaeroides, UniProt P0C0Y7 1-260; P0C0Y8 2-282; P0C0Y9 2-308; P0C0X9 1-58; P0C0Y1 1-49; P13402 1-82); experiment: PeakForce QNM single-molecule force spectroscopy (AFM); RC–LH1–PufX on the AFM tip, illuminated; pre-reduced cytochrome c2-His6 (and His6-CFP in patterned lines) held on a Ni-NTA SiOx substrate; 10 mM HEPES pH 7.4, 45 mM KCl, room temperature; modulation frequencies 0.5, 1 and 2 kHz; details: both partners purified
[2] = biological target: T1, monomeric RC–His12–LH1–PufX core …; experiment: single-molecule dynamic force spectroscopy (AFM); RC–LH1–PufX on the AFM tip via His12/Ni-NTA and a PEG12 linker, kept photo-oxidised by white light; pre-reduced cytochrome c2-His6 held on a Ni-NTA SiOx substrate via His6; 10 mM HEPES pH 7.4, 45 mM KCl, room temperature; retract velocity 200–3000 nm s^-1; the paper calls the values apparent; details: both partners purified

koff [1]: 198 s⁻¹
koff [2]: 7.5 s⁻¹
B1: cytochrome c2-His6 (natural protein)
chain: QEGDPEAGAKAFNQCQTCHVIVDDSGTTIAGRNAKTGPNLYGVVGRTAGTQADFKGYGEGMKEAGAKGLAWDEEHFVQYVQDPTKFLKEYTGDAKAKGKMTFKLKKEADAHNIWAYLQQVAVRP
notes: cytochrome c2, cloned from Rba. sphaeroides strain 2.4.1; Carries a haem cofactor; pre-reduced with 1 mM sodium dithionite before the measurements; The gene was cloned with its own start; the signal peptide is surmised to be cut in Rba. sphaeroides; also called Cyt c2–His6; cyt c2; source: Rba. sphaeroides ΔcycA strain carrying the gene on pRK415, purified (LDAO-solubilised membrane fraction, …)
